Reference: patent publication US20120065367A1, “Radioactively Labeled Substance” (priority 2009, published 2012)

Experiments:
[1] = set-up: species or system ddY-strain male mice; conditions: mouse
Description: 100 μL (about 1 μCi) of unpurified ^99mTc-(D-Pen-N-hexanoate-cRGDfK)2 or ^99mTc-(D-Pen-N-hexanoate-cRGDfK)2 purified by RP-HPLC was administered to the tail veins of ddY-strain male mice at 6 weeks of age (three mice for each group). The mice were sacrificed 10 minutes, 1, 3, and 6 hours after the administration, and blood samples were collected. The mice were anatomized, and the weight and radioactivity of each organ were measured. The radioactivity in urine and feces excreted by 6 hours after the administration was also measured.

[2] = system: Human glioma cell line, U87MG cells; assay: Accumulation of radiolabeled drug in tumor and organ of tumor-bearing mice; format: in vivo, Balb/c-nu/nu mice; conditions: for Ratio of accumulation in tumor to that in tissue: Tumor/Blood / Ratio of accumulation in tumor to that in tissue: Tumor/Intestine / Ratio of accumulation in tumor to that in tissue: Tumor/Liver: 1 hour after administration; for Accumulated amount in tissue: Blood / Accumulated amount in tissue: Intestine / Accumulated amount in tissue: Kidney / Accumulated amount in tissue: Liver / Accumulated amount in tissue: Lung / Accumulated amount in tissue: Stomach / Accumulated amount in tissue: Tumor: 1 hour after tail vein administration
Description: Human glioma cell line, U87MG cells at 5×10^6 cells/mouse were administered subcutaneously in the left femur of Balb/c-nu/nu mice at 4 weeks of age. The mice bearing the tumor of 0.5 g in size were used for a body distribution experiment.
A ^99mTc-GH solution with [GH]=4.0 mg/mL was obtained by adding 750 μL (1.58 μCi) of a solution of Na[^99mTcO4] in saline eluted from a ^99Mo/^99mTc generator to a lyophilized GH kit (3.0 mg) including α-D-glucoheptonic acid and stannous chloride to perform a reaction at room temperature for 20 minutes. Further, a 2 mM ligand solution was separately prepared by dissolving D-Pen-Hx-cRGDfK (0.8 mg, […]) in 471 μL of 0.1 M Tris hydrochloride buffer (pH 9.0) purged with nitrogen. 140 μL of the ^99mTc-GH solution was added to 140 μL of the ligand solution, they were sufficiently mixed, and then subjected to a reaction at 40° C. for 40 minutes. The reaction solution was diluted to 40-fold with saline so that [Free ligand]=0.025 mM to use as the unpurified sample to be administered.
A ^99mTc-GH solution with [GH]=4.0 mg/mL was obtained by adding 500 μL (970 μCi) of a solution of Na[^99mTcO4] in saline eluted from a ^99Mo/^99mTc generator to a lyophilized GH kit (2.0 mg) including α-D-glucoheptonic acid and stannous chloride to perform a reaction at room temperature for 20 minutes. Further, a 2 mM ligand solution was separately prepared by dissolving TMEC-[N-hexanoate-c(Arg-Gly-Asp-D-Phe-Lys)]2 (hereinafter, sometimes abbreviated as TMEC-RGD2) (0.7 mg, 0.406 μmol) in 200 μL of 0.1 M acetate buffer (pH 3.5) purged with nitrogen. 200 μL of the ^99mTc-GH solution was added to 200 μL of the ligand solution, they were sufficiently mixed, and then subjected to a reaction at 80° C. for one hour. A half amount of the reaction solution (200 μL) was applied to RP-HPLC (mobile phase: A=10 mM phosphate buffer (pH 6.0), B=MeOH; gradient system: 0 to 18 minutes: B=0 to 60%, 18 to 26 minutes: B=60 to 100%, 26 to 31 minutes: B=100%), a fraction eluted at 24 minutes was collected, the organic solvent was distilled off under reduced pressure, and then the residue was diluted with 10% ethanol/saline to use as the purified sample. Further, the other half amount of the reaction solution (200 μL) was diluted to 40-fold with saline so that [Free ligand]=0.025 mM to use as the unpurified sample to be administered.
100 μL of the unpurified ^99mTC-(D-Pen-Hx-cRDGfK)2 sample (about 1.1 μCi) was administered to the tail veins of tumor-bearing Balb/c-nu/nu male mice at 10 weeks of age. There were 5 mice in one group. The mice were sacrificed by beheading 1 hour after the administration. Blood, organs of interest, and the tumor were removed, and the weight of and the radioactivity in each organ were measured.
100 μL of the purified or unpurified ^99mTc-TMEC-RGD2 sample (about 0.5 μCi) was administered to the tail veins of tumor-bearing Balb/c-nu/nu male mice at 10 weeks of age. There were 4 mice in one group. The mice were sacrificed by beheading 1 hour after the administration. Blood, organs of interest, and the tumor were removed, and the weight of and the radioactivity in each organ were measured.

[3] = Stability of 99mTc complex in buffer; format: physicochemical; conditions: 0.01 M phosphate buffer (pH 6.0), room temperature, after 1, 3, 6, and 24 hours
Description: 11. Examination of Stability
Each ^99mTc-labeled compound was purified by RP-HPLC (method 1 or method 2), and then the solvent was distilled off under reduced pressure. The residue was redissolved in 400 μL of 0.01 M phosphate buffer (pH 6.0). This solution was stored at room temperature, and after 1, 3, 6, and 24 hours, its radiochemical purity was analyzed by CAE or RP-HPLC.

[4] = administered after removing the excessive ligand by HPLC
[5] = administered without removing the excessive ligand

^99mTc-(D-Pen-N-hexanoate-cRGDfK)2 [^99mTc-(Pen-RGD)2]
Stability in vivo [1]: stable in vivo | Ratio accumulated in the tumor to that in each tissue, compared with purified 99mTc-TMEC-RGD2 ([2]; mouse, in vivo): equivalence to or higher than

^99mTc-TMEC-[N-hexanoate-c(Arg-Gly-Asp-D-Phe-Lys)]2 [^99mTc-TMEC-RGD2]
Ratio of accumulation in tumor to that in tissue: Tumor/Blood [2, 4]: 4.91 (1.07) | Ratio of accumulation in tumor to that in tissue: Tumor/Intestine [2, 4]: 0.54 (0.10) | Ratio of accumulation in tumor to that in tissue: Tumor/Liver [2, 4]: 0.65 (0.14) | Accumulated amount in tissue: Blood [2, 4]: 0.72 (0.02) % injected dose/gram tissue | Accumulated amount in tissue: Intestine [2, 4]: 6.70 (0.75) % injected dose/gram tissue | Accumulated amount in tissue: Kidney [2, 4]: 16.68 (3.87) % injected dose/gram tissue | Accumulated amount in tissue: Liver [2, 4]: 5.47 (0.41) % injected dose/gram tissue | Accumulated amount in tissue: Lung [2, 4]: 2.33 (0.31) % injected dose/gram tissue | Accumulated amount in tissue: Stomach [2, 4]: 1.20 (0.16) % injected dose | Accumulated amount in tissue: Tumor [2, 4]: increased | Accumulated amount in tissue: Tumor ([2]; administered after removing the excessive ligand by HPLC, listed as 99mTC-TMEC-RGD2): 3.54 (0.72) % injected dose/gram tissue | Ratio of accumulation in tumor to that in tissue: Tumor/Blood [2, 5]: 3.41 (1.55) | Ratio of accumulation in tumor to that in tissue: Tumor/Intestine [2, 5]: 0.37 (0.13) | Ratio of accumulation in tumor to that in tissue: Tumor/Liver [2, 5]: 0.67 (0.31) | Accumulated amount in tissue: Blood [2, 5]: 0.86 (0.33) % injected dose/gram tissue | Accumulated amount in tissue: Intestine [2, 5]: 7.42 (1.95) % injected dose/gram tissue | Accumulated amount in tissue: Kidney [2, 5]: 26.82 (8.71) % injected dose/gram tissue | Accumulated amount in tissue: Liver [2, 5]: 4.57 (2.10) % injected dose/gram tissue | Accumulated amount in tissue: Lung [2, 5]: 2.38 (0.57) % injected dose/gram tissue | Accumulated amount in tissue: Stomach [2, 5]: 0.79 (0.30) % injected dose

^99mTc-(D-penicillamine)2 [^99mTc-(D-Pen)2]
Stability in a buffer (radiochemical purity) [3]: higher stability
